{"source": "paper PMC5856381", "about": "(2018)", "binders": {"B1": {"name": "recombinant haptoglobin Hp1F, C1r-LP processed (natural protein)", "chain 1": "VDSGNDVTDIADDGCPKPPEIAHGYVEHSVRYQCKNYYKLRTEGDGVYTLNDKKQWINKAVGDKLPECEAVCGKPKNPANPVQ", "chain 2": "ILGGHLDAKGSFPWQAKMVSHHNLTTGATLINEQWLLTTAKNLFLNHSENATAKDIAPTLTLYVGKKQLVEIEKVVLHPNYSQVDIGLIKLKQKVSVNERVMPICLPSKDYAEVGRVGYVSGWGRNANFKFTDHLKYVMLPVADQDQCIRHYEGSTVPEKKTPKSPVGVQPILNEHTFCAGMSKYQEDTCYGDAGSAFAVHDLEEDTWYATGILSFDKSCAVAEYGVYVKVTSIQDWVQKTIAEN", "modifications": "Hp1F built from the first (F) repeat of Hp2FS (mature Asp52/Lys53 = precursor D70/K71); C1r-LP cleaves after R161 (Arg omitted from alpha chain per UniProt convention); alpha-beta and inter-alpha disulfides; N-glycosylated; C-terminal 8xHis tag omitted"}}, "key": {"[1]": {"biological_target": "T1, hemoglobin (Hb), human, cell-free (human, UniProt P69905 1-142; P68871 1-147)", "T1 sequence (P69905 whole entry, chain 1 of 2)": "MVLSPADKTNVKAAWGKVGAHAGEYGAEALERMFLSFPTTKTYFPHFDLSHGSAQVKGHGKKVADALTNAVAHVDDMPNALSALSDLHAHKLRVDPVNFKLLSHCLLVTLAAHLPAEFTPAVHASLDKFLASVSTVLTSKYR", "T1 sequence (P68871 whole entry, chain 2 of 2)": "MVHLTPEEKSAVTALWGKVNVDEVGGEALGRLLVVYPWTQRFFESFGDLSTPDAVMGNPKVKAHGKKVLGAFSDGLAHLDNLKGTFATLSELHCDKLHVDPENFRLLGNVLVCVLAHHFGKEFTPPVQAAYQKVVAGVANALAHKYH", "experiment": "SPR"}, "[2]": {"biological_target": "T1, hemoglobin (Hb), human, cell-free", "experiment": "SPR", "remark": "listed apart in the source"}}, "data": [{"binder": "B1", "values": [{"measurement": "Kd", "setting": "[1]", "result": "< 42", "unit": "pM"}, {"measurement": "koff", "setting": "[2]", "result": "< 5e-05", "unit": "s⁻¹"}]}]}
